# Article PMC9477746, “Mechanism of AAA+ ATPase-mediated RuvAB–Holliday junction branch migration” (Nature, 2022)
# B1: RuvA from S. typhimurium (natural protein, UniProt P66746 1-203, looked up)
# chain: MIGRLRGIILEKQPPIVLLETGGVGYEVHMPMTCFYELPEAGQEAIVFTHFVVREDAQLLYGFNNKQERTLFKELIKTNGVGPKLALAILSGMSAQQFVNAVEREELGALVKLPGIGKKTAERLIVEMKDRFKGLHGDLFTPAVDLVLTSPASPTSEDAEQEAVAALVALGYKPQEASRMVSKIARPDASSETLIRDALRAAL
# notes: RuvA, Holliday junction branch migration protein, Salmonella typhimurium; three domains (I, II, III); Tetramer in solution by gel filtration; two tetramers (eight chains) on the Holliday junction in the cryo-EM complex; Cloned into pET-52b(+) by NcoI and SacI; also called RuvA (S. typhimurium); recombinant S. typhimurium RuvA; source: E. coli BL21(DE3), purified (HisTrap, Superdex 200 SEC)
# B2: N-terminally truncated RuvB (16-333) from S. thermophilus (domain or fragment, UniProt Q03IE9 16-333, looked up)
# chain: VERTLRPQYFKEYIGQDKVKDQLKIFIEAAKLRDEALDHTLLFGPPGLGKTTMAFVIANEMGVNLKQTSGPAIEKAGDLVAILNDLEPGDILFIDEIHRMPMAVEEVLYSAMEDYYIDIMIGAGETSRSVHLDLPPFTLVGATTRAGMLSNPLRARFGINGHMEYYELPDLTEIVERTSEIFEMTITPEAALELARRSRGTPRIANRLLKRVRDYAQIMGDGVIDDKIADQALTMLDVDHEGLDYVDQKILRTMIEMYGGGPVGLGTLSVNIAEERETVEDMYEPYLIQKGFIMRTRTGRVATAKAYEHMGYDYTRDN
# notes: RuvB, Holliday junction AAA+ ATPase, Streptococcus thermophilus, residues 16-333; domains RuvB^L 21-181, RuvB^S 182-254, RuvB^H 255-330; C-terminal TEV site, linker and HA tag; TEV cleavage done during dialysis, so residues of the TEV site may remain at the C-terminus; Tetrameric by gel filtration in solution, hexamer on DNA in the cryo-EM complex; also called RuvB (S. thermophilus); RuvB motor; …
# B3: HJ-Y2Ap (immobile Holliday junction) (structured_DNA)
# DNA 1: CTCATCGAGAATCTGCCGAGAGACCGAGCAGAATTCTATGTGTTTACCAAGCGCTG
# DNA 2: CAGCGCTTGGTAAACACATAGAATTCTGCTCGGTCTGAGCCGTCTAAGAGACCTAG
# DNA 3: CTAGGTCTCTTAGACGGCTCACTGGCTGTGGGATCCGAGCTGTCTAGAGACATCGA
# DNA 4: TCGATGTCTCTAGACAGCTCGGATCCCACAGCCAGTCTCGGCAGATTCTCGATGAG
# Key:
# [1] = target: the molecule itself; experiment: cryo-EM structure; in vitro reconstituted RuvAB-Holliday junction hetero-complex: SEC-purified RuvA-HJ mixed with RuvB, 10 mM MgCl2, equimolar ATPγS and ADP (1 mM), 37 °C 10 min, then on ice about 5 h before vitrification (dataset t2)
# [2] = target: B2; experiment: cryo-EM structure; same reconstitution of the RuvAB-Holliday junction hetero-complex, on ice 30 min before vitrification (dataset t1); conditions: both partners purified
# [3] = target: the molecule itself; experiment: SEC; Superdex 200 10/300GL, 100 mM NaCl, 1 mM EDTA, 0.5 mM DTT, 5% glycerol, 100 mM Tris-HCl pH 8; each protein alone; mass estimated from retention of a gel filtration standard
# RuvA = target: T1, RuvA (Salmonella typhimurium, UniProt P66746 1-203); experiment: EMSA; 5 mM EDTA; complex II (two tetramers) saturated at >500 nM RuvA; complex I (one tetramer) at <200 nM; EMSA: 30 mM Tris-HCl pH 8, 5 mM EDTA, 1 mM DTT, 100 ug/ml BSA, 30 min at 37 C; 6% PAGE at 4 C in 0.5x TAE; conditions: protein: recombinant; tags: C-terminal His4; chain copies: 4; label: 5'-32P on one strand; four-way junction 1:2 2:3 3:4 4:1
# T1 sequence: B1 chain
Binder,stoichiometry N [1],stoichiometry N [2] [RuvA^D3 per RuvB hexamer],stoichiometry N [3],binding result (RuvA)
B1,4,1,–,–
B2,6,–,4,–
B3,–,–,–,binds
